Results on one protein are retold here after PMC4841471 (Nature, 2015).

The series concerns the molecule itself. In words: crystal structure.

B1: Two-pore channel TPC1 from Arabidopsis thaliana (AtTPC1) (natural protein, UniProt Q94KI8 1-733, looked up)
chain: MEDPLIGRDSLGGGGTDRVRRSEAITHGTPFQKAAALVDLAEDGIGLPVEILDQSSFGESARYYFIFTRLDLIWSLNYFALLFLNFFEQPLWCEKNPKPSCKDRDYYYLGELPYLTNAESIIYEVITLAILLVHTFFPISYEGSRIFWTSRLNLVKVACVVILFVDVLVDFLYLSPLAFDFLPFRIAPYVRVIIFILSIRELRDTLVLLSGMLGTYLNILALWMLFLLFASWIAFVMFEDTQQGLTVFTSYGATLYQMFILFTTSNNPDVWIPAYKSSRWSSVFFVLYVLIGVYFVTNLILAVVYDSFKEQLAKQVSGMDQMKRRMLEKAFGLIDSDKNGEIDKNQCIKLFEQLTNYRTLPKISKEEFGLIFDELDDTRDFKINKDEFADLCQAIALRFQKEEVPSLFEHFPQIYHSALSQQLRAFVRSPNFGYAISFILIINFIAVVVETTLDIEESSAQKPWQVAEFVFGWIYVLEMALKIYTYGFENYWREGANRFDFLVTWVIVIGETATFITPDENTFFSNGEWIRYLLLARMLRLIRLLMNVQRYRAFIATFITLIPSLMPYLGTIFCVLCIYCSIGVQVFGGLVNAGNKKLFETELAEDDYLLFNFNDYPNGMVTLFNLLVMGNWQVWMESYKDLTGTWWSITYFVSFYVITILLLLNLVVAFVLEAFFTELDLEEEEKCQGQDSQEKRNRRRSAGSKSRSQRVDTLLHHMLGDELSKPECSTSDT
In the case of B1, the “stoichiometry N” value is 2.

Usually stoichiometry N stands for a count of units in the complex or per binding partner.
